# Source: patent publication US20250127904A1, “SIGLEC LIGANDS, CONJUGATES, AND METHODS OF USE THEREOF” (Osprey Biopharmaceuticals, Inc., priority 2023, published 2025)
# Legend:
# [1] = tested on: C57BL/6 mice; test: In vivo anti-drug antibody (ADA) titers in mice; parameters: species or system mouse; details: 4 mg/kg subcutaneous, day 20
# Protocol: Adalimumab and Adalimumab-Siglec Ligand conjugates were prepared as described in Example 4. The Adalimumab-Siglec ligand was conjugated by maleimide coupling to engineered cysteine residue L443C in the heavy chain constant region.
# To evaluate the production of antibodies specific to adalimumab and/or adalimumab-Siglec Ligand conjugates, C57BL/6 mice were immunized through subcutaneous injection with adalimumab or CD22 ligand-conjugated adalimumab. On study day −1, animals were randomized into treatment groups based on body weight. On study day 0, animals were bled for baseline serum and then injected subcutaneously with adalimumab or the adalimumab-Siglec Ligand conjugate. The individual antigens were prepared by making antigen solution in sterile PBS pH 7.4. […]
# ADA assays were performed on 96-well assay plates (Nunc Plates, Black 96-Well Immuno Plates, Thermo Scientific, Cat. No. 437111) coated with antigen, as follows. […] The excitation and emission settings for the QuantaBlu Fluorogenic Peroxide Substrates are 325 nm and 420 nm and the relative florescence units were measured using a SpectraMax plate reader. […] The titer cut point was determined by calculating the mean of the naïve, untreated mice and adding twice the standard deviation of the untreated samples.
# [2] = Pharmacokinetic monitoring in mice after single subcutaneous administration; type: in vivo, mouse; details: C57BL/6 mice, single subcutaneous dose 4 mg/kg
# Protocol: Pharmacokinetic monitoring was also carried out in the same C57BL/6 mice following a single subcutaneous administration of adalimumab or the SigL-conjugated adalimumab antibodies. Animals were bled via the retro-orbital sinus throughout the study under inhaled isoflurane anesthesia at 1 h, 6 h, 1-day, 2-days, 6-days, 13-days, 20 days and 27-days post test-article administration. Whole blood was collected into Microvette K2EDTA capillary collection tube (Sarstedt Inc) and then further processed following manufactures instructions to collect plasma. Levels of adalimumab and SigL-conjugated adalimumab in plasma samples were measured using an AlphaLISA human IgG assay (Perkin Elmer) following manufacturer's protocols.
substance,measurement,setting,value
Adalimumab,ADA titers,[1],high ADA titers
same,clearance,[2],significantly increased clearance
same,time of falling below the limit of quantitation (BLOQ),[2],13 days
